Source: PMC11480844 (2024)

B1: H2-Kb / Ed8 (parent complex)
chain 1: AQSVTQPDARVTVSEGASLQLRCKYSYFGTPYLFWYVQYPRQGLQLLLKYYPGDPVVQGVNGFEAEFSKSNSSFHLRKASVHWSDWAVYFCAVSPGSGGKLTLGAGTRLQVNL
chain 2: DSGVVQSPRHIIKEKGGRSVLTCIPISGHSNVVWYQQTLGKELKFLIQHYEKVERDKGFLPSRFSVQQFDDYHSEMNMSALELEDSAMYFCASSPRASNYTFGSGTRLLVI
chain 3: not shown
chain 4: IQKTPQIQVYSRHPPENGKPNILNCYVTQFHPPHIEIQMLKNGKKIPKVEMSDMSFSKDWSFYILAHTEFTPTETDTYACRVKHDSMAEPKTVYWDRDM
chain 5: SIINFEKL
B2: H2-Kb / F4 (parent complex)
chain 1: QQQVRQSPQSLTVWEGETAILNCSYEDSTFNYFPWYQQFPGEGPALLISIRSVSDKKEDGRFTIFFNKREKKLSLHITDSQPGDSATYFCAAMSNYNVLYFGSGTKLTVEP
chain 2: ETAVFQTPNYHVTQVGNEVSFNCKQTLGHDTMYWYKQDSKKLLKIMFSYNNKQLIVNETVPRRFSPQSSDKAHLNLRIKSVEPEDSAVYLCASSARQNSPLYFAAGTRLTVT
chain 3: not shown
chain 4: B1 chain 4
chain 5: SIINFEKL

Variants of: B1
Experiment: % of reporter cells activated (NFAT-GFP), raw
Further: test concentration or dose not given here.

Variant | ratio to parent
chain 5 I3A | 1.14
chain 5 I2E | 1.34
chain 5 I2N | 1.26
chain 5 I2L | 1.37
chain 5 I2Q | 1.06
chain 5 I2C | 1.33
chain 5 I2W | 1.16
chain 5 I2K | 1.18
chain 5 I2R | 1.16
chain 5 I2D | 1.39
chain 5 I2Y | 1.06
chain 5 F5T | 1.32
chain 5 F5L | 1.41
chain 5 F5C | 1.3
chain 5 F5G | 1.03
chain 5 F5V | 1.09
chain 5 F5D | 1.12
chain 5 F5W | 1.12
chain 5 F5P | 1.16
chain 5 E6C | 0.0436
chain 5 E6R | 0.459
chain 5 E6V | 0.0189
chain 5 E6M | 0.453
chain 5 E6A | 0.678
chain 5 E6W | 0.012
chain 5 E6Y | 0.606

The next lines start with the values.

ratio to parent | Variant
1.4 | chain 5 I3H
1.25 | chain 5 I3P
1.3 | chain 5 I3L
0.541 | chain 5 I3R
0.336 | chain 5 N4E
0.00499 | chain 5 N4P
0.255 | chain 5 N4A
0.155 | chain 5 N4H
0.262 | chain 5 N4T
0.84 | chain 5 N4L
0.00512 | chain 5 N4Q
0.00716 | chain 5 N4W
0.442 | chain 5 N4R
0.216 | chain 5 N4S
0.689 | chain 5 K7P
0.73 | chain 5 K7V
0.898 | chain 5 K7S
0.578 | chain 5 K7M

ratio to parent | Variant
0.616 | chain 5 K7G
0.393 | chain 5 K7F
0.698 | chain 5 K7I
1.25 | chain 5 K7H
0.815 | chain 5 K7L
0.0642 | chain 5 K7E
0.903 | chain 5 L8D
1.12 | chain 5 L8F
1.15 | chain 5 L8I
1.24 | chain 5 S1Q
1.15 | chain 5 S1V
1.05 | chain 5 S1W
1.13 | chain 5 S1P
0.917 | chain 5 S1L
1.27 | chain 5 S1M
1.28 | chain 5 S1G
1.37 | chain 5 S1T

Variants of: B2
Experiment: % of reporter cells activated (NFAT-GFP), raw

Variant | ratio to parent
chain 5 I2Y | 0.108
chain 5 I2W | 0.641
chain 5 I2T | 0.773
chain 5 I2M | 0.617
chain 5 I2R | 0.393
chain 5 I2A | 1.38
chain 5 I2H | 0.0964
chain 5 I2V | 1.94
chain 5 I2P | 0.16
chain 5 I2C | 2.17
chain 5 I2N | 0.305
chain 5 I2F | 0.955
chain 5 I2D | 0.406
chain 5 F5H | 1.01
chain 5 F5M | 1.29
chain 5 F5T | 1.19
chain 5 F5D | 0.129
chain 5 F5P | 0.0353

Variant | ratio to parent
chain 5 F5L | 0.554
chain 5 F5C | 1.29
chain 5 F5R | 0.285
chain 5 F5E | 0.0661
chain 5 F5Y | 0.526
chain 5 F5G | 0.264
chain 5 F5I | 1.36
chain 5 E6M | 0.0214
chain 5 E6R | 0.0897
chain 5 E6F | 0.033
chain 5 E6A | 0.05
chain 5 E6P | 0.0487
chain 5 E6H | 0.0263
chain 5 E6G | 0.0237
chain 5 E6V | 0.0232
chain 5 E6W | 0.113
chain 5 E6Y | 0.0161
chain 5 I3A | 0.467

Results, then the variant that gave them:

ratio to parent | Variant
0.0299 | chain 5 N4Y
0.0522 | chain 5 N4C
0.0308 | chain 5 N4A
0.0277 | chain 5 N4R
0.0362 | chain 5 N4V
0.0205 | chain 5 N4I
0.0228 | chain 5 N4E
0.225 | chain 5 N4G
0.0116 | chain 5 N4Q
0.0246 | chain 5 N4P
0.0415 | chain 5 N4W
0.021 | chain 5 N4M
0.0594 | chain 5 N4L
1.35 | chain 5 K7H
0.417 | chain 5 K7Q
0.105 | chain 5 K7E
0.254 | chain 5 K7N
0.927 | chain 5 K7V
0.377 | chain 5 K7C
0.0549 | chain 5 K7P
0.517 | chain 5 K7W
1.03 | chain 5 K7Y
0.805 | chain 5 L8H
0.564 | chain 5 L8G
0.903 | chain 5 L8I
0.564 | chain 5 L8F
0.614 | chain 5 L8T

ratio to parent | Variant
0.312 | chain 5 L8D
0.355 | chain 5 L8E
0.352 | chain 5 L8K
0.783 | chain 5 L8C
0.125 | chain 5 I3M
0.083 | chain 5 I3P
0.0214 | chain 5 I3H
0.262 | chain 5 I3K
0.106 | chain 5 I3S
0.0777 | chain 5 I3E
0.558 | chain 5 I3C
0.188 | chain 5 I3N
1.74 | chain 5 I3V
2.05 | chain 5 I3L
0.0348 | chain 5 S1F
0.0268 | chain 5 S1M
0.0768 | chain 5 S1Y
0.029 | chain 5 S1E
0.0272 | chain 5 S1A
0.0344 | chain 5 S1Q
0.0174 | chain 5 S1I
0.0259 | chain 5 S1R
0.0638 | chain 5 S1V
0.0263 | chain 5 S1L
0.0189 | chain 5 S1D
0.188 | chain 5 S1G
